How the values were obtained:
Details in all cases: protein: recombinant; tags: Trx-His6 removed by 3C protease; label: 5' Cy3
[1] = target: T1, RecQ4 427-1116 (Homo sapiens, UniProt O94761 427-1116); assay: fluorescence polarization; apparent Kd; 20 mM HEPES pH 8.0, 10 mM NaCl, 5% glycerol, 1 mM MgCl2, 0.5 mM TCEP, 0.5 nM Cy3-ssDNA; temperature not stated
T1 sequence: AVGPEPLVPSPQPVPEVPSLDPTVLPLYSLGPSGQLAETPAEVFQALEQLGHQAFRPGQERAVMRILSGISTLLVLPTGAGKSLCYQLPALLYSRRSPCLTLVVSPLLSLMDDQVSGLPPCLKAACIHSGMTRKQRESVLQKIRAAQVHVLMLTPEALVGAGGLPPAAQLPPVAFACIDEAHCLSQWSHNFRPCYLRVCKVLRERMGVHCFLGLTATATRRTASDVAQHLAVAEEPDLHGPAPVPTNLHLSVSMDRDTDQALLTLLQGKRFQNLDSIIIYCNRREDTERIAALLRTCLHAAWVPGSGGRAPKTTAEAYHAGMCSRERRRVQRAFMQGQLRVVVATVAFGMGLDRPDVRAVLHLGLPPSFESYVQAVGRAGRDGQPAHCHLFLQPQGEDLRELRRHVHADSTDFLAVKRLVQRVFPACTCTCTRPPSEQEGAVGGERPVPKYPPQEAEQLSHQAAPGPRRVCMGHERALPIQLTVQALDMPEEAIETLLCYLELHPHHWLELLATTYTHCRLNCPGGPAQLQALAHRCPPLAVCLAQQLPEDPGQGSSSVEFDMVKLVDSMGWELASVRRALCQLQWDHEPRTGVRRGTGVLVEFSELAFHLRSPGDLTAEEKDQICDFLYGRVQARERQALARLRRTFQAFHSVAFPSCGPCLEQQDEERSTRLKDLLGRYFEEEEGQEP

[2] = target: T2, RecQ4 427-1208 WT (Homo sapiens, UniProt O94761 427-1208); assay: as above
T2 sequence: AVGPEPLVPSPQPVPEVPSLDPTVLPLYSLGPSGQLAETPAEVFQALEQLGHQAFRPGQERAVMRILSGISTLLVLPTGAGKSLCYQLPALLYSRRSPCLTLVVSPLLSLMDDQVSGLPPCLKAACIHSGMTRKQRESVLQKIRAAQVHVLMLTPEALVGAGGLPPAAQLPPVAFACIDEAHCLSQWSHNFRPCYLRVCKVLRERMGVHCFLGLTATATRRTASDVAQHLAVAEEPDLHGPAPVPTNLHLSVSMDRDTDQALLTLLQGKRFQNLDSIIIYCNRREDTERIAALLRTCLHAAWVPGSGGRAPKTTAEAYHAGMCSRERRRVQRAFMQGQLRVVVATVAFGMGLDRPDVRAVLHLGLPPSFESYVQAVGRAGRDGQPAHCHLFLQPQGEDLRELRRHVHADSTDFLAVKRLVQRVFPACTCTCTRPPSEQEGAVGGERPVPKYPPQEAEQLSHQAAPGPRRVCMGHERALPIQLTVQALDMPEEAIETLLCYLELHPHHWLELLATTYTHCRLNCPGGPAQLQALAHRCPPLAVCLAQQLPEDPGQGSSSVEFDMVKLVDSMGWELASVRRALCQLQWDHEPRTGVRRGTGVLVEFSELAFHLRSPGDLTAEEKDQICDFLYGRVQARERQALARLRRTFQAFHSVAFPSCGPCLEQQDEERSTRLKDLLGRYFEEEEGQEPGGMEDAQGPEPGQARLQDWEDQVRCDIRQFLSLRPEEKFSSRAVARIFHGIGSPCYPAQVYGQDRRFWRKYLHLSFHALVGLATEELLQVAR

[3] = target: T3, RecQ4 427-1208 F617L (Homo sapiens, UniProt O94761 427-1208, F617L); assay: fluorescence polarization; WT-like affinity; figure values not assignable from text layer; 20 mM HEPES pH 8.0, 10 mM NaCl, 5% glycerol, 1 mM MgCl2, 0.5 mM TCEP, 0.5 nM Cy3-ssDNA; temperature not stated
T3 sequence: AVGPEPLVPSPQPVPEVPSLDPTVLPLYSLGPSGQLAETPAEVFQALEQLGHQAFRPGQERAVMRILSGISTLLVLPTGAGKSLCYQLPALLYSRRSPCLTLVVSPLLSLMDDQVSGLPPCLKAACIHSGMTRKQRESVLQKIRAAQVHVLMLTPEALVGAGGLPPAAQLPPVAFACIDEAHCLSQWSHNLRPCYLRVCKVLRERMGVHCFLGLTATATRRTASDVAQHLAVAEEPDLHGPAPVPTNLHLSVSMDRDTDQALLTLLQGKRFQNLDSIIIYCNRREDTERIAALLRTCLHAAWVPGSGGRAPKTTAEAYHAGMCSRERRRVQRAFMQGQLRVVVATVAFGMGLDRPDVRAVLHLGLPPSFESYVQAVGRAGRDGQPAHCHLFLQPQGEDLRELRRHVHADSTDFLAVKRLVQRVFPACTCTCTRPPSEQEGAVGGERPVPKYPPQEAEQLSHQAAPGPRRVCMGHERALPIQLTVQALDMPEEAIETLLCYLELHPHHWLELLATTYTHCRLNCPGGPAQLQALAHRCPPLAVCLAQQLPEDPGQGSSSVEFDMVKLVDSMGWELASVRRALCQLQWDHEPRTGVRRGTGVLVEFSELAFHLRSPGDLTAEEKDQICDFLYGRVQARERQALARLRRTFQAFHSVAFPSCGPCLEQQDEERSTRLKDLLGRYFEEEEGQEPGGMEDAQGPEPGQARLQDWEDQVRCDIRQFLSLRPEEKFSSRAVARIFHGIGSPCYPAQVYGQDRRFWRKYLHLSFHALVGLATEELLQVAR

B1: T3-Cy3 (ssDNA)
DNA: CCATTCCACCCTCTATTTTTTTTTTTTTTT
[1]
  Kd: 18.1 ± 0.8 nM
[2]
  Kd: 4.6 ± 0.4 nM
[3]
  binding result: binds

Source: paper PMC5490261, “The structural and functional characterization of human RecQ4 reveals insights into its helicase mechanism”
